{
  "source": "patent US20210239714A1",
  "about": "“TEST METHOD FOR OLFACTORY MUCOSA OR OLFACTORY MUCUS IN MAMMALS” (Ajinomoto Co., Inc., priority 2018, published 2021)",
  "test_system": "olfactory receptor (OR X)",
  "assay": "Luciferase reporter assay using olfactory receptor-expressing HEK293T cells, effect of concurrent addition of LCN15",
  "format": "cell-based, human",
  "conditions": "mixed solution of isovaleric acid (30 μM) and LCN15 (1 μM) compared to isovaleric acid (30 μM) alone; 3 hours, 37° C.",
  "text": "A human olfactory receptor gene was cloned by a PCR method using a human olfactory receptor gene purchased from TrueClone cDNA Clone Collection (OriGene) as a template base on sequence information registered in GenBank. Each gene amplified by the PCR method was subcloned into downstream of a Rho tag sequence of a Rho-pME18S vector (K. Kajiya et al., Journal of Neuroscience, 15 Aug. 2001, 21 (16) 6018-6025, which is incorporated herein by reference in its entirety) using EcoRI and XhoI sites to obtain an expression vector for the human olfactory receptor.\nHEK293T cells that expressed the olfactory receptor (OR X) was prepared by the following procedure. […]\nThe olfactory receptor (OR X) expressed on HEK293T cells is conjugated with Golf to activate adenylate cyclase, thereby increases an amount of intracellular cAMP. In this Example, the measurement for response of the olfactory receptor to a test substance employed luciferase reporter gene assay in which increase of the amount of intracellular cAMP was monitored as increase of a luminescence value derived from firefly luciferase. […] In conjugation with this, a luminescence value derived from Renilla luciferase was used as an internal standard for correcting errors of a gene transfer efficiency and a cell number in each well. […]",
  "data": [
    {"molecule": "lipocalin 15 (protein, listed as Homo sapiens, secreted protein produced in the olfactory mucosa and secreted into the olfactory mucus; recombinant hLCN15 prepared in E. coli) MEVLLQPDFNAEKFSGLWYVVSMASDCRVFLGKKDHLSMSTRAIRPTEEGGLHVHMEFPGADGCNQVDAEYLKVGSEGHFRVPALGYLDVRIVDTDYSSFAVLYIYKELEGALSTMVQLYSRTQDVSPQALKSFQDFYPTLGLPKDMMVMLPQSDACNPESKEAP", "values": [
      {"measurement": "response intensity of the olfactory receptor (Luc/hRLuc value)", "value": "more enhanced"}
    ]}
  ]
}
